In PMC7949091:

Molecular target: HA-tagged extracellular domain of EspIgR (E. sinensis polymeric immunoglobulin receptor) (E. sinensis)

For “Flag-tagged EsVg-DUF1943 domain (domain or fragment)”, the percentage of hemocyte phagocytosis of FITC-labeled S. aureus coated with rEsVg-DUF1943, in vitro, flow cytometry (controls ∼11.39%; with siEspIgR ∼5.57%) was 22.1% and the percentage of hemocyte phagocytosis of FITC-labeled V. parahaemolyticus coated with rEsVg-DUF1943, in vitro, flow cytometry (with siEspIgR ∼6.10%) was 21.5%.
